Biological target: ABI2, O04719-1
Sequence (O04719 whole entry): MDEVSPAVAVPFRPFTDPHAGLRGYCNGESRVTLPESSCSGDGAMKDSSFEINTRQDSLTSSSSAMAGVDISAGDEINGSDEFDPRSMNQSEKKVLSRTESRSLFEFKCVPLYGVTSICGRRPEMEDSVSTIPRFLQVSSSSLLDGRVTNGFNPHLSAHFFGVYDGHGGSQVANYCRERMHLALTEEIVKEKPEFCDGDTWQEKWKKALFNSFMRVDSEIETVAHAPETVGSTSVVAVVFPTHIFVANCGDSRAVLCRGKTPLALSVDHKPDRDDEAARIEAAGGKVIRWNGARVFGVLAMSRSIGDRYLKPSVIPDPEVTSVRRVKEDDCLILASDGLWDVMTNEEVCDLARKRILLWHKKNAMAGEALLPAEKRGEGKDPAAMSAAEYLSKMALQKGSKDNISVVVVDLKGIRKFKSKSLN

Rac-like GTP-binding protein ARAC10 (Arabidopsis thaliana (Mouse-ear cress)), O82481 D123A, sequence (O82481 whole entry D123A): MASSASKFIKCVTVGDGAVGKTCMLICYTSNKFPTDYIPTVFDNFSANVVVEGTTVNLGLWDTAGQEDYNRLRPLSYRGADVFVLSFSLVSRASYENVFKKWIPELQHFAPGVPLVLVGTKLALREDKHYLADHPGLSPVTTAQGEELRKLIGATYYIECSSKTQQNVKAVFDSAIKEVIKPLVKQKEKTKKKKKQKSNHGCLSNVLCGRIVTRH

Rac-like GTP-binding protein ARAC10 (Arabidopsis thaliana (Mouse-ear cress)), O82481 D123A
effect of a mutation on the interaction: disrupting interaction strength

— IntAct's records for PubMed 22908257
